# Reference: PMC7904846, “Nanobody-based chimeric antigen receptor T cells designed by CRISPR/Cas9 technology for solid tumor immunotherapy” (Signal Transduction and Targeted Therapy, 2021)
# B1: Nb C184 (VHH)
# VHH: QVQLQESGGGSVQAGGSLRLSCVASGYTVSRGYMGWFRQAPGKEREAVAAIRTGSGSTYYADSVKGRFTISQDNAKNTVYLQMNSLKHEDTGMYYCAASLWYGGNWQSWGSYNYWGQGTQVTVSS
# notes: camel VHH selected by phage display against CD105; Cloned in phagemid pMECS, which gives C-terminal hemagglutinin-His6-tagged Nbs; In the CAR the same VHH is joined to the CD8a hinge and transmembrane domain, 4-1BB and CD3zeta; also called anti-CD105 Nanobody (C184); CD105 Nb
# Target: T1, CD105 (Homo sapiens, UniProt P17813)
# T1 construct: CD105 (endoglin), human; also called endoglin; CD105 protein
# Test: SPR; CD105 Nbs (10 ug/mL) immobilised on PlexArray Nanocapture Sensor Chips; different concentrations injected at 3.0 uL/s; PlexArray HT system; regeneration with 0.05 mol/L NaOH; 25 °C; triplicate
# Details: both partners purified
# T1 sequence (P17813 26-658): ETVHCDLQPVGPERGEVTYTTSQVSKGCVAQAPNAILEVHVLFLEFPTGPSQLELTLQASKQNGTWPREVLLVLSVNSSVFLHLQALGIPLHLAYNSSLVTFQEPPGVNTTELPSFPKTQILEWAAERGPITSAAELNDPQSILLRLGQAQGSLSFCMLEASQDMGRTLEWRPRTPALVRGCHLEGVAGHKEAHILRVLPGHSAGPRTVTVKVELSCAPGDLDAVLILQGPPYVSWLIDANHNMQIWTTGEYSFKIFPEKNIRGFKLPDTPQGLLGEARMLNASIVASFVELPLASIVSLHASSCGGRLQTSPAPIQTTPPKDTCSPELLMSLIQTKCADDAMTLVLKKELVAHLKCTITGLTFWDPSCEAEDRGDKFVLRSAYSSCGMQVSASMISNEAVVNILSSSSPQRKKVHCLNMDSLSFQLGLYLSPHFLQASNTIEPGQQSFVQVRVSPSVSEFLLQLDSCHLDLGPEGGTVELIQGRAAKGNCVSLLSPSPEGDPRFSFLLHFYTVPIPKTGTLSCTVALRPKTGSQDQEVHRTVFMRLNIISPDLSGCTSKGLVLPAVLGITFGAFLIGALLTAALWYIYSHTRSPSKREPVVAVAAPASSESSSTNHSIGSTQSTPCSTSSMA
binder,measurement,value
B1,binding result,binds
